Assay results taken from the supplement of paper PMC10065799, “High-throughput profiling of sequence recognition by tyrosine kinases and SH2 domains using bacterial peptide display” (eLife, 2023).

biological target: EPHB2 (UniProt P29323); experiment: phosphorylation enrichment, bacterial display (enrichment ratio); higher = better substrate or ligand; peptides without Tyr show the background
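Further: 11-residue human phosphosite peptides and single-mutation variants displayed on the E. coli surface, counted by deep sequencing, each peptide's frequency after selection divided by its frequency in the unselected input library; frequency after pTyr selection over input frequency; kinase dosed for 20-30% of maximal phosphorylation in three min.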

EPHB2, sequence (P29323 whole entry, looked up): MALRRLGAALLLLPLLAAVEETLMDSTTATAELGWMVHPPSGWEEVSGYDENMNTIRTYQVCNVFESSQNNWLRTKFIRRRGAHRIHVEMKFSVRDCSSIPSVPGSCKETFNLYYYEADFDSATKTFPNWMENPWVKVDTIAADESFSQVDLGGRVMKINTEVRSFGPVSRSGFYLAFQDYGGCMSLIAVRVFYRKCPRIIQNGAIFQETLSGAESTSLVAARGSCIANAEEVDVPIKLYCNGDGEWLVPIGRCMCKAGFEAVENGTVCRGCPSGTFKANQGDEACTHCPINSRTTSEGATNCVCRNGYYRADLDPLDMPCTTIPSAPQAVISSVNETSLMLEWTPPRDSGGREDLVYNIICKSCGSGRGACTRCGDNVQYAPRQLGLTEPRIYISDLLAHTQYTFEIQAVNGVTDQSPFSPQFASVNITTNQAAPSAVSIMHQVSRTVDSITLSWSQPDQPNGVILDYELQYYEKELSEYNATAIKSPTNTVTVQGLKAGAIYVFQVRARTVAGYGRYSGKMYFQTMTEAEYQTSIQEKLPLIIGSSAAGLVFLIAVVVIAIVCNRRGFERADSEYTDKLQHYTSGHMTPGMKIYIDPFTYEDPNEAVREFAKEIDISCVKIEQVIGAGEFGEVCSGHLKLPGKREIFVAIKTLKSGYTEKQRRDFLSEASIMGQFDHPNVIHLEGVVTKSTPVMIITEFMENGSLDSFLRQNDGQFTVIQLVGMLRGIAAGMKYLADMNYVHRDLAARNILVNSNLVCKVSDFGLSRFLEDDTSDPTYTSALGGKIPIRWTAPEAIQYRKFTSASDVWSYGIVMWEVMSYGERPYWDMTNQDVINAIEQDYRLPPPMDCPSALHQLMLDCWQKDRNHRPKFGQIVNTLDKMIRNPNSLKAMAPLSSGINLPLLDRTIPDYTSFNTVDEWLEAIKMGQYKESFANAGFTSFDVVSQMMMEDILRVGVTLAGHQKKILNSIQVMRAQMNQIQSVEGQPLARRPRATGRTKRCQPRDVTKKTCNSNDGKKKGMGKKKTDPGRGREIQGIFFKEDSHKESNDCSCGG

Row | Sequence | phosphorylation enrichment
1 | APRKVYDTQDD [ZFPL1_Y215_R218Q] | 0.685
2 | GCVRMYELVHR [GLE1_Y135] | 3.69
3 | LSIQCYLRASD [HMGCS2_Y262_L266S] | 3.31
4 | QPGTDYKIYLY [FN1_Y1970] | 0.759
5 | DSNLIYSQIWS [FCRL3_Y662_P660L] | 17.1
6 | AASTDYFKRGD [PDHA1_Y242_YF] | 0.454
7 | KDFTKYVAYIE [KDM4B_Y31_N29T] | 0.584
8 | TLQWMYGCDVG [HLA-B_Y123_S121W] | 0.661
9 | SVVVPYKPPEV [TP53_Y220_E221K] | 0.461
10 | CEAMEYQESKQ [BTK_Y511_L512Q] | 0.557
11 | PFTRNYFVWAV [CYBA_Y87_R90W_YF] | 3.07
12 | EFISEYCGEII [EZH2_Y641] | 0.716
13 | EQAERYDDMAA [YWHAG_Y20] | 0.51
14 | PSELFYSKISP [SMG1_Y2254_G2258S_YF] | 1.52
15 | AGARMYGVLPW [PLP1_Y207_D203G] | 0.724
16 | VVTGPYEKPSL [KIR3DS1_Y221_L220P] | 0.513
17 | GDRPVYSEDEQ [CHST6_Y362_Y358D] | 0.702

Row | Sequence | phosphorylation enrichment
18 | SVVVPYEPSEV [TP53_Y220_P223S] | 0.515
19 | IIWDSYTTNKV [GNB1_Y85] | 0.598
20 | SSAKTYSRMRL [NBEAL2_Y1835_E1833K] | 0.366
21 | LGPSDYFGETA [PRKAR1A_Y323_I327T] | 0.425
22 | CTSIHYNYMCN [TP53_Y234_T231S] | 0.63
23 | LAIERYVVVCK [RHO_Y136] | 1.09
24 | NGVSYYINLCQ [IGF2R_Y2025] | 0.548
25 | LWQTIYNLEAE [TNNT2_Y251_S249T] | 0.894
26 | FPPTHYIRRMP [SLC4A11_Y820_V824M_YF] | 0.661
27 | GYQPDYGQPAG [SYP_Y278] | 0.378
28 | MCTVDYLLRLQ [RYR1_Y3921_I3916M] | 0.62
29 | FGGLRYGFGVL [KRTAP20-2_Y13_YF] | 0.379
30 | PGVDIYVSPNM [PADI3_Y51_I52V] | 1.46
31 | CYVYYYSYLLK [PTEN_Y178_R173C] | 0.792
32 | DLAAQYTTVGH [SGSH_Y240_R245H] | 0.453
33 | KGSEGYLAATF [NF1_Y2503_YF] | 0.402

system: AncSZ; experiment: as above

Row | Sequence | phosphorylation enrichment
34 | APRKVYDTQDD [ZFPL1_Y215_R218Q] | 0.993
35 | GCVRMYELVHR [GLE1_Y135] | 1.07
36 | LSIQCYLRASD [HMGCS2_Y262_L266S] | 3.81
37 | QPGTDYKIYLY [FN1_Y1970] | 1.74
38 | DSNLIYSQIWS [FCRL3_Y662_P660L] | 2.1
39 | AASTDYFKRGD [PDHA1_Y242_YF] | 0.625
40 | KDFTKYVAYIE [KDM4B_Y31_N29T] | 0.864
41 | TLQWMYGCDVG [HLA-B_Y123_S121W] | 1.2
42 | SVVVPYKPPEV [TP53_Y220_E221K] | 0.915
43 | CEAMEYQESKQ [BTK_Y511_L512Q] | 1.57
44 | PFTRNYFVWAV [CYBA_Y87_R90W_YF] | 4.23
45 | EFISEYCGEII [EZH2_Y641] | 1.61
46 | EQAERYDDMAA [YWHAG_Y20] | 1.22
47 | PSELFYSKISP [SMG1_Y2254_G2258S_YF] | 1.15
48 | AGARMYGVLPW [PLP1_Y207_D203G] | 0.67
49 | VVTGPYEKPSL [KIR3DS1_Y221_L220P] | 1.04
50 | GDRPVYSEDEQ [CHST6_Y362_Y358D] | 1.54

Row | Sequence | phosphorylation enrichment
51 | SVVVPYEPSEV [TP53_Y220_P223S] | 1.21
52 | IIWDSYTTNKV [GNB1_Y85] | 1.2
53 | SSAKTYSRMRL [NBEAL2_Y1835_E1833K] | 0.433
54 | LGPSDYFGETA [PRKAR1A_Y323_I327T] | 0.964
55 | CTSIHYNYMCN [TP53_Y234_T231S] | 0.842
56 | LAIERYVVVCK [RHO_Y136] | 1.83
57 | NGVSYYINLCQ [IGF2R_Y2025] | 1.19
58 | LWQTIYNLEAE [TNNT2_Y251_S249T] | 1.56
59 | FPPTHYIRRMP [SLC4A11_Y820_V824M_YF] | 0.919
60 | GYQPDYGQPAG [SYP_Y278] | 0.701
61 | MCTVDYLLRLQ [RYR1_Y3921_I3916M] | 1.07
62 | FGGLRYGFGVL [KRTAP20-2_Y13_YF] | 0.786
63 | PGVDIYVSPNM [PADI3_Y51_I52V] | 1.37
64 | CYVYYYSYLLK [PTEN_Y178_R173C] | 1.5
65 | DLAAQYTTVGH [SGSH_Y240_R245H] | 0.854
66 | KGSEGYLAATF [NF1_Y2503_YF] | 0.654

biological target: Hck (UniProt P08631); experiment: as above
Sequence (P08631 whole entry, looked up): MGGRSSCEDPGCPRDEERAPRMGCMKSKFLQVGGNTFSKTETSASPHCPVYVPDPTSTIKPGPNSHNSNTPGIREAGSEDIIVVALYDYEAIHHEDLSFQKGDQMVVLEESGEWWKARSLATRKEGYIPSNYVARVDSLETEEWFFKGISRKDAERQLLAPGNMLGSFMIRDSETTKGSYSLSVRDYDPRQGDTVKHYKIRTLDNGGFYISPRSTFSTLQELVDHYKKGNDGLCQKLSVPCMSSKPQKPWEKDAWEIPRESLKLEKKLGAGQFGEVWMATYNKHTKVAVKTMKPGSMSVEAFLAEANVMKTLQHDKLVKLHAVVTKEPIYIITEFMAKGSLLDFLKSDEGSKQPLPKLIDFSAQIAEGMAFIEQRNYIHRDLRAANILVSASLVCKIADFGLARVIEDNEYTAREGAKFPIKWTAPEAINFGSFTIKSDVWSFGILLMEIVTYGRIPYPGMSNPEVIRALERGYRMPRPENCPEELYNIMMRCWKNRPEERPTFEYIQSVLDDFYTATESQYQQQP

Row | Sequence | phosphorylation enrichment
67 | APRKVYDTQDD [ZFPL1_Y215_R218Q] | 0.586
68 | GCVRMYELVHR [GLE1_Y135] | 1.64
69 | LSIQCYLRASD [HMGCS2_Y262_L266S] | 2.46
70 | QPGTDYKIYLY [FN1_Y1970] | 0.86
71 | DSNLIYSQIWS [FCRL3_Y662_P660L] | 9.1
72 | AASTDYFKRGD [PDHA1_Y242_YF] | 0.45
73 | KDFTKYVAYIE [KDM4B_Y31_N29T] | 0.558
74 | TLQWMYGCDVG [HLA-B_Y123_S121W] | 0.485
75 | SVVVPYKPPEV [TP53_Y220_E221K] | 0.421
76 | CEAMEYQESKQ [BTK_Y511_L512Q] | 0.705
77 | PFTRNYFVWAV [CYBA_Y87_R90W_YF] | 1.92
78 | EFISEYCGEII [EZH2_Y641] | 0.664
79 | EQAERYDDMAA [YWHAG_Y20] | 0.501
80 | PSELFYSKISP [SMG1_Y2254_G2258S_YF] | 8.64
81 | AGARMYGVLPW [PLP1_Y207_D203G] | 5.5
82 | VVTGPYEKPSL [KIR3DS1_Y221_L220P] | 0.503
83 | GDRPVYSEDEQ [CHST6_Y362_Y358D] | 0.662

Row | Sequence | phosphorylation enrichment
84 | SVVVPYEPSEV [TP53_Y220_P223S] | 0.6
85 | IIWDSYTTNKV [GNB1_Y85] | 0.482
86 | SSAKTYSRMRL [NBEAL2_Y1835_E1833K] | 0.453
87 | LGPSDYFGETA [PRKAR1A_Y323_I327T] | 0.509
88 | CTSIHYNYMCN [TP53_Y234_T231S] | 0.514
89 | LAIERYVVVCK [RHO_Y136] | 0.862
90 | NGVSYYINLCQ [IGF2R_Y2025] | 0.581
91 | LWQTIYNLEAE [TNNT2_Y251_S249T] | 5.88
92 | FPPTHYIRRMP [SLC4A11_Y820_V824M_YF] | 0.601
93 | GYQPDYGQPAG [SYP_Y278] | 0.409
94 | MCTVDYLLRLQ [RYR1_Y3921_I3916M] | 0.529
95 | FGGLRYGFGVL [KRTAP20-2_Y13_YF] | 0.399
96 | PGVDIYVSPNM [PADI3_Y51_I52V] | 2.76
97 | CYVYYYSYLLK [PTEN_Y178_R173C] | 0.949
98 | DLAAQYTTVGH [SGSH_Y240_R245H] | 0.96
99 | KGSEGYLAATF [NF1_Y2503_YF] | 0.416

biological target: MERTK (UniProt Q12866); experiment: as above
Sequence (Q12866 whole entry, looked up): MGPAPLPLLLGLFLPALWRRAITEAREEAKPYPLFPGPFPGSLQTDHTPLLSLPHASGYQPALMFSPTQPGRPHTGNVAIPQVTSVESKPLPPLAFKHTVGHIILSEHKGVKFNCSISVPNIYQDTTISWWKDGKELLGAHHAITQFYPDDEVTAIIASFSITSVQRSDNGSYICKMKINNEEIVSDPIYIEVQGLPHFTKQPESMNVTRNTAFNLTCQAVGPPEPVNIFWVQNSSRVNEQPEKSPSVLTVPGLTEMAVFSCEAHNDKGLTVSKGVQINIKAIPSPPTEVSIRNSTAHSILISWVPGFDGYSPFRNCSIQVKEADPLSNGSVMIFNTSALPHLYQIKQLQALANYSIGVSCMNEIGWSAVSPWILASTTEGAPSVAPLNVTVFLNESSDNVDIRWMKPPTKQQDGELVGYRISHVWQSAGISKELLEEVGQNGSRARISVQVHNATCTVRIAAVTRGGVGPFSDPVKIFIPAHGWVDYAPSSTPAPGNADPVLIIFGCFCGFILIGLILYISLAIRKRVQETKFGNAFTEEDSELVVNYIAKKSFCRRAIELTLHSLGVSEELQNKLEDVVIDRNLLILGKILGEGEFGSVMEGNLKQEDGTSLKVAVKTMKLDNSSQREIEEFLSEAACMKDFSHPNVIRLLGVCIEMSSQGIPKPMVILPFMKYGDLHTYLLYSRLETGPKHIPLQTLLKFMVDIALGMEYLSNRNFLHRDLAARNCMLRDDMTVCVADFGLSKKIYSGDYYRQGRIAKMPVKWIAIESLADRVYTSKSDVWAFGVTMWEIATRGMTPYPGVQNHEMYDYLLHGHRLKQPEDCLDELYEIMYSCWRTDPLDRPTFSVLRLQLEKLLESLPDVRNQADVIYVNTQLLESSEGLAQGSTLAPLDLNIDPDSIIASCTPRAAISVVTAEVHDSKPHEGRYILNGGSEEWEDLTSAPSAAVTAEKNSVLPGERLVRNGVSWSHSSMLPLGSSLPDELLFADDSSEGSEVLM

Row | Sequence | phosphorylation enrichment
100 | APRKVYDTQDD [ZFPL1_Y215_R218Q] | 0.466
101 | GCVRMYELVHR [GLE1_Y135] | 2.95
102 | LSIQCYLRASD [HMGCS2_Y262_L266S] | 1.2
103 | QPGTDYKIYLY [FN1_Y1970] | 0.501
104 | DSNLIYSQIWS [FCRL3_Y662_P660L] | 10
105 | AASTDYFKRGD [PDHA1_Y242_YF] | 0.325
106 | KDFTKYVAYIE [KDM4B_Y31_N29T] | 0.465
107 | TLQWMYGCDVG [HLA-B_Y123_S121W] | 0.38
108 | SVVVPYKPPEV [TP53_Y220_E221K] | 0.517
109 | CEAMEYQESKQ [BTK_Y511_L512Q] | 0.589
110 | PFTRNYFVWAV [CYBA_Y87_R90W_YF] | 9.74
111 | EFISEYCGEII [EZH2_Y641] | 0.616
112 | EQAERYDDMAA [YWHAG_Y20] | 0.407
113 | PSELFYSKISP [SMG1_Y2254_G2258S_YF] | 13.6
114 | AGARMYGVLPW [PLP1_Y207_D203G] | 0.842
115 | VVTGPYEKPSL [KIR3DS1_Y221_L220P] | 0.45
116 | GDRPVYSEDEQ [CHST6_Y362_Y358D] | 0.565

Row | Sequence | phosphorylation enrichment
117 | SVVVPYEPSEV [TP53_Y220_P223S] | 0.503
118 | IIWDSYTTNKV [GNB1_Y85] | 0.356
119 | SSAKTYSRMRL [NBEAL2_Y1835_E1833K] | 0.4
120 | LGPSDYFGETA [PRKAR1A_Y323_I327T] | 0.398
121 | CTSIHYNYMCN [TP53_Y234_T231S] | 0.448
122 | LAIERYVVVCK [RHO_Y136] | 0.732
123 | NGVSYYINLCQ [IGF2R_Y2025] | 0.417
124 | LWQTIYNLEAE [TNNT2_Y251_S249T] | 0.735
125 | FPPTHYIRRMP [SLC4A11_Y820_V824M_YF] | 0.524
126 | GYQPDYGQPAG [SYP_Y278] | 0.334
127 | MCTVDYLLRLQ [RYR1_Y3921_I3916M] | 0.516
128 | FGGLRYGFGVL [KRTAP20-2_Y13_YF] | 0.42
129 | PGVDIYVSPNM [PADI3_Y51_I52V] | 0.629
130 | CYVYYYSYLLK [PTEN_Y178_R173C] | 1.17
131 | DLAAQYTTVGH [SGSH_Y240_R245H] | 0.405
132 | KGSEGYLAATF [NF1_Y2503_YF] | 0.514
